{"source": "patent US20250011363A1", "about": "“OPTIMIZED SHORTENED PEPTIDE THAT BINDS TO ACETYLCHOLINE RECEPTOR, AND USE THEREOF” (SKINMED CO., LTD., priority 2021, published 2025)", "key": {"acetylcholine receptor": {"target": "acetylcholine receptor", "assay": "SPR, AchR immobilized on chip"}, "[1]": {"target": "acetylcholine receptor on acetylcholine receptor-overexpressing TE671 cells", "assay": "cell-based or functional assay"}}, "data": [{"substance": "Synake (peptide)", "values": [{"measurement": "Binding affinity (RU)", "setting": "acetylcholine receptor", "value": 14, "unit": "RU"}, {"measurement": "inhibition of acetylcholine receptors (calcium imaging with Fura-2-AM, TE671 cells, nicotine 400 uM)", "setting": "[1]", "value": 500, "unit": "µM"}]}]}
